Assay results: publication PMC7402034

molecular target: SARS-CoV-2 S protein trimer (with mutations R683A and R685A, His-tag) (SARS-CoV-2) (UniProt P0DTC2); assay: ELISA

Row | Substance | Kd [nM]
1 | Human DC-SIGN (Fc-tag) (from UniProt Q9NNX6) (Fc fusion) | 0.192
2 | Human DC-SIGNR (Fc-tag) (from UniProt Q9H2X3) (Fc fusion) | 0.986
3 | Human MGL (Fc-tag) (from UniProt Q8IUN9) (Fc fusion) | 0.312
